Experimental data published in patent CN113845595A (FUZHOU MAIXIN BIOTECHNOLOGY DEV CO LTD, dated 2021).

Target: T1, GH蛋白 (垂体瘤组织中的内源GH) (human, UniProt P01241 27-217)
T1 construct: Endogenous antigen detected by immunohistochemistry in pituitary tumour samples; also called 人GH蛋白
Assay: immunohistochemistry on 9 pituitary tumour samples

T1 sequence (P01241 27-217 limits assumed): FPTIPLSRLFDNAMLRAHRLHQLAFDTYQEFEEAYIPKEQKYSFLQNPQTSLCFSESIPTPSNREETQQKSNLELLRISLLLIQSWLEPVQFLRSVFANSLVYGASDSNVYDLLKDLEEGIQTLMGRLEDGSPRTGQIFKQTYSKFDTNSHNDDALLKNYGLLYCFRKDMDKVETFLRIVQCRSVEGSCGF

B1: 抗GH蛋白单克隆抗体(9D5D2A9) (antibody, V domains shown)
VH: QVQLKESGPGLVAPSQSLSITCTVSGFSLTNYGIHWVRQPPGKGLEWLGLIWSGGSTKYNSALMSRLSISRDNSKSQVFLKMNSLQSDDTAMYYCVRDELYAYWGQGTLVTVSA
VL: DIVMTQSHKFMSTSVGDRVSITCKASQDVGPTVAWYQQKPGQSPKLLIYWASTRHTGVPDRFTGSGYGTDFTLTISNVQSEDLADYFCQQYSSYPFTFGSGTKLEIK
notes: also called GH单克隆抗体; CGMCC NO.22315
- binding result: binds
